According to publication PMC11975282:
Blank lines part the entries; values can stand above or below the binder they belong to.

Assays:
[1] = molecular target: Apt1-Flag fusion protein (human), O75608; assay: native gel or EMSA; conditions: remark: other sources report otherwise
[2] = molecular target: Apt2-Flag fusion protein (human), O95372; assay: native gel or EMSA; conditions: remark: other sources report otherwise

stoichiometry N [1]: 2
B1: Apt1-Flag fusion protein, O75608 1-230 (enzyme)
chain: MCGNNMSTPLPAIVPAARKATAAVIFLHGLGDTGHGWAEAFAGIRSSHIKYICPHAPVRPVTLNMNVAMPSWFDIIGLSPDSQEDESGIKQAAENIKALIDQEVKNGIPSNRIILGGFSQGGALSLYTALTTQQKLAGVTALSCWLPLRASFPQGPIGGANRDISILQCHGDCDPLVPLMFGSLTVEKLKTLVNPANVTFKTYEGMMHSSCQQEMMDVKQFIDKLLPPID

stoichiometry N [2]: 2
B2: Apt2-Flag fusion protein, O95372 1-231 (enzyme)
chain: MCGNTMSVPLLTDAATVSGAERETAAVIFLHGLGDTGHSWADALSTIRLPHVKYICPHAPRIPVTLNMKMVMPSWFDLMGLSPDAPEDEAGIKKAAENIKALIEHEMKNGIPANRIVLGGFSQGGALSLYTALTCPHPLAGIVALSCWLPLHRAFPQAANGSAKDLAILQCHGELDPMVPVRFGALTAEKLRSVVTPARVQFKTYPGVMHSSCPQEMAAVKEFLEKLLPPV
